The values below come from paper PMC8706911, “Insights into the Neutralization and DNA Binding of Toxin–Antitoxin System ParESO-CopASO by Structure-Function Studies” (Microorganisms, 2021).

B1: CopASO (SO_1445), antitoxin of the ParESO-CopASO type II toxin-antitoxin system of prophage CP4So (natural protein, Shewanella oneidensis, UniProt Q8EGZ2 1-102, looked up)
chain: MSTIKPVSVKLDADIKARVEHLAETRKRSSHWMMREAIREYVEREEKREALQQEALRAWEEHQTSGLHVTGDEVVSWLESWGSENEQAALHATNSLHCHCIT
modifications: selenomethionine-substituted in the crystal
notes: CopASO (SO_1445), antitoxin of prophage CP4So, Shewanella oneidensis; called full-length in the complex; 93 residues modelled in CopASO (I), 77 in CopASO (II); also called CopASO (I); CopASO (II)

Data set [1] concerns CopASO (Shewanella oneidensis (prophage CP4So)). As to the kind of experiment: ITC. The note with it: ITC: 20 mM Tris pH 8.0, 100 mM NaCl, 5% (v/v) glycerol, 20 °C; 100-400 uM DNA injected into 10-100 uM protein; one-site model.
In data set [2] the test system is CopASO;ParESO (in purified ParESO-CopASO complex) (Shewanella oneidensis (prophage CP4So);Shewanella oneidensis (prophage CP4So)). Kind of data set: ITC. Conditions: ITC: 20 mM Tris pH 8.0, 100 mM NaCl, 5% (v/v) glycerol, 20 °C; 100-400 uM DNA injected into 10-100 uM protein; one-site model.
Data set [3] deals with the molecule itself. As to the kind of experiment: crystal structure; Se-Met ParESO-CopASO complex, crystallised in 20% PEG3350, 0.2 M tri-sodium citrate at 20 °C; SAD, 3.80 Å.
Data set [4] deals with B1. The data set is described as above. The note with it: both partners purified.

Take “TAAGGTATTACCTAGTAGTACTAAG (double strand) [25 bp copASO-parESO promoter duplex]”: the Kd in data set [1] came out at 0.016 µM; in data set [2], 0.66 µM. In the case of B1, in data set [3], the “stoichiometry N” value came to 2.

B2: ParESO (SO_1444), toxin of the ParESO-CopASO type II toxin-antitoxin system of prophage CP4So (natural protein, Shewanella oneidensis)
chain: MPQIVFTATALRDLERLREFLRSKNPPAAQRAASAIINTIRKLESYPDIGRPIDDNDFSFRELLIDFGDTGYLAMYQYDGGERLTVLCIRHQKEAGY
modifications: selenomethionine-substituted in the crystal
notes: also called ParESO (I); ParESO (II)
Take B2: in data set [4], the binding result is “binds”.
